Experimental data: US20050147687A1, “Methods for fabrication, uses and compositions of small spherical particles of AAT prepared by controlled phase separation” (priority 2003, published 2005)

Molecular target: porcine pancreatic elastase (PPE) (Sus scrofa, UniProt P00772)
Test: Inhibition of porcine pancreatic elastase by rAAT (specific activity)
Format: biochemical
Procedure: To determine the specific activity, the rAAT small spherical particles were dissolved in 0.2M Tris-HCl pH 8.0 at room temperature. The resulting solution was analyzed by an assay which measures the capacity of rAAT to inhibit the ability of porcine pancreatic elastase (PPE) to hydrolyze synthetic peptides that contain a p-nitroanilide group at their C-terminus. The same solution of rAAT small spherical particles was then assayed for protein concentration using the Bicinchoninic Acid (BCA) assay. A control rAAT starting material solution was also analyzed in both assays. Because the activity assay was developed to determine the activity based on a concentration of 1 mg/ml protein per sample, the activity value was corrected based on the actual protein concentration as determined by BCA, giving the specific activity value: [formula]

porcine pancreatic elastase (PPE), sequence (P00772 27-266): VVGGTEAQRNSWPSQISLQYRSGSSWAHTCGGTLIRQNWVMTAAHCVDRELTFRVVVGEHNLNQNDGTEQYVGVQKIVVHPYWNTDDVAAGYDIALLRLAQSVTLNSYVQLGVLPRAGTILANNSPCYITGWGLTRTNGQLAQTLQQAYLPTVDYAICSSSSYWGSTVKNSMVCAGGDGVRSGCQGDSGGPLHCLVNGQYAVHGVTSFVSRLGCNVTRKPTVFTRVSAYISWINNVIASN

control rAAT starting material: control solution of recombinant alpha-1-antitrypsin starting material
specific activity, inhibition of porcine pancreatic elastase (scale 100-300 mg (n = 12, column)): 64.34 ± 4.95 IU/mg | specific activity, inhibition of porcine pancreatic elastase (scale 200-300 mg (n = 8, vessel)): 65.87 ± 0.98 IU/mg
